# Legend:
# [1] = molecular target: GH43_1 from PUL15 of Prevotella copri DSM18205 (intracellular β-xylosidase / exo-β-xylanase) (Prevotella copri DSM 18205); assay: SEC; HiPrep 16/60 Sephacryl S-300 HR column, 0.5 mL/min, sodium phosphate 50 mM, NaCl 150 mM, pH 7.0; calibrated with molecular weight standards 20-700 kDa; native mass compared with the theoretical mass
# [2] = molecular target: GH10 (1) from PUL15 of Prevotella copri DSM18205 (extracellular endo-1,4-β-xylanase) (Prevotella copri DSM 18205); assay: as above
stoichiometry N [1],stoichiometry N [2],Substance
2,–,GH43_1 from PUL15 of Prevotella copri DSM18205 (intracellular β-xylosidase / exo-β-xylanase) (enzyme)
–,2,"GH10 (1) from PUL15 of Prevotella copri DSM18205 (extracellular endo-1,4-β-xylanase) (enzyme)"

# Source: article PMC8631079
